The term Kd denotes a measure of binding affinity in units of concentration. Low readings indicate a tighter complex, high ones a looser complex.

What all share (assay): BLI
In general terms: In BLI a coated tip is dipped into the sample, and binding shifts an interference pattern.

The target of experiment [1] is T1, CCL4 (Homo sapiens).
T1 chain: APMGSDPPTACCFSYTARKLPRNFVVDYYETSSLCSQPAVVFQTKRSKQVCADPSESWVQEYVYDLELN

Experiment [2] addresses T2, CCL23 (human, UniProt P55773 22-120).
T2 chain: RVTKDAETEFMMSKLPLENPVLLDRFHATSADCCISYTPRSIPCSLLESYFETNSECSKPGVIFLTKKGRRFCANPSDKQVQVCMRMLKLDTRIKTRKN

Experiment [3] has as its target T3, CCL16 (Homo sapiens).
T3 chain: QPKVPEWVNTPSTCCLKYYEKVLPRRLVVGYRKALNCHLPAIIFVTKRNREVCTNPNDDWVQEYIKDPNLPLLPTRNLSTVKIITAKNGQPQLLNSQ

In experiment [4] the target is CCL11 (Homo sapiens).
Experiment [5] addresses CCL7 (human, UniProt P80098 24-99).
Experiment [6] has as its target CCL13 (human, UniProt Q99616 24-98).
For experiment [7], the target named is T4, CCL14 (Homo sapiens).
T4 chain: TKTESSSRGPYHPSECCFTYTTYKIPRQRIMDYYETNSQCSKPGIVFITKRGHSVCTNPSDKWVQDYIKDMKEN

Experiment [8] concerns the target T5, CCL27 (Homo sapiens).
T5 chain: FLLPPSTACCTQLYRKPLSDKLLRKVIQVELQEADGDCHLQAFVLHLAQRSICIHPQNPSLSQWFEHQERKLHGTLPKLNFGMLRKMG

In experiment [9] the target is T6, CCL15 (Homo sapiens).
T6 chain: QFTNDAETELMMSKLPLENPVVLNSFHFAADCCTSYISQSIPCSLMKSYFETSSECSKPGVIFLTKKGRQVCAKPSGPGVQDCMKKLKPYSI

Experiment [10] deals with T7, CCL18 (Homo sapiens).
T7 chain: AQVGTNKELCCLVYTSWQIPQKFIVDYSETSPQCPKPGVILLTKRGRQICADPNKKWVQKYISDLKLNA

The target of experiment [11] is T8, CCL4L1 (Homo sapiens).
T8 chain: T1 chain with S47G

Experiment [12] concerns the target T9, CCL21 (human, UniProt O00585 24-134).
T9 chain: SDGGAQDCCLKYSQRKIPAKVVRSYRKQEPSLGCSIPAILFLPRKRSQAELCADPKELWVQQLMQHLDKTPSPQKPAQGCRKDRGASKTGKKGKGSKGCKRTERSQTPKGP

Experiment [13] concerns the target T10, CCL22 (human, UniProt O00626 25-93).
T10 chain: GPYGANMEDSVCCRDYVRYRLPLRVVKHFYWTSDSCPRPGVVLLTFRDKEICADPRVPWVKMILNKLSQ

Experiment [14] concerns the target T11, CCL17 (Homo sapiens).
T11 chain: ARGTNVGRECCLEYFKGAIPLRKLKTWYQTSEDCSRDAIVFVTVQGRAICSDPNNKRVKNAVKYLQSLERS

Experiment [15] concerns the target T12, CCL3L1 (human, UniProt P16619 24-93).
T12 chain: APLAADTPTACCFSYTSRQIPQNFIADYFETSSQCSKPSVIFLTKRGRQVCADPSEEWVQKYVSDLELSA

Experiment [16] deals with T13, CCL3 (human, UniProt P10147 24-92).
T13 chain: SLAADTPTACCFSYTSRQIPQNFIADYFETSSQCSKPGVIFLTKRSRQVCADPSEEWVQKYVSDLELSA

Experiment [17] has as its target T14, CCL8 (Homo sapiens).
T14 chain: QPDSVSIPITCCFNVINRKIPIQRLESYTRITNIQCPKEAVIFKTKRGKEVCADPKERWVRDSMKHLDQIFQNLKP

Experiment [18] addresses T15, CCL5 (human, UniProt P13501 24-91).
T15 chain: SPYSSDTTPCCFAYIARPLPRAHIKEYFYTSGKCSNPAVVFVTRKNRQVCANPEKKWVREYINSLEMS

The target in experiment [19] is T16, CCL24 (Homo sapiens).
T16 chain: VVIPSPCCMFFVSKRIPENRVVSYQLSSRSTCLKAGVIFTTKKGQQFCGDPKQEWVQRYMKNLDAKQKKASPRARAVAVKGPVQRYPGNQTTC

In experiment [20] the target is T17, CCL1 (human, UniProt P22362 24-96).
T17 chain: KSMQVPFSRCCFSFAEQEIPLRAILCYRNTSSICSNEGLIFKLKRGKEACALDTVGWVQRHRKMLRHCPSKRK

The target in experiment [21] is T18, CCL19 (Homo sapiens).
T18 chain: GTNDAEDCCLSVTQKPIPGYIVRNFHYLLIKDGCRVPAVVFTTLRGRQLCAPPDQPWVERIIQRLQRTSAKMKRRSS

Where a chain is given by its changes, count along the chain named.

CCL13, sequence (Q99616 24-98): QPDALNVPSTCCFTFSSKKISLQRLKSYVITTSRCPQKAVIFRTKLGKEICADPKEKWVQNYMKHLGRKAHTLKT
CCL11 (Homo sapiens), sequence (chain, as listed by the source): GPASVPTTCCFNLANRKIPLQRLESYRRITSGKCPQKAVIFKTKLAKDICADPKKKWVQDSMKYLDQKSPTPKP
CCL7, sequence (P80098 24-99): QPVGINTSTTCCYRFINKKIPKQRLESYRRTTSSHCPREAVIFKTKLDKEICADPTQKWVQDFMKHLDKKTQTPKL

B1: P1243 (evasin from Amblyomma americanum), purified, C-terminal StrepII:8xHis tag (natural protein)
chain: ETGRNHTEDNSTEYYDYEEARCACPARHLNNTNGTVLKLLGCHYFCNGTLCTAPDGYPCYNLTAQQVRTLTTYPNTSCAVGVCMKGTCVKNGTMEQCFKTP
B1: the Kd in [1] was 12.2 nM; in experiment [2], 0.772 nM; in [3], 1.3 nM; in [4], 6.69 nM; in experiment [5] it was 49.3 nM; in experiment [6] it was 1.4 nM. The Kd in experiment [7] was 4.33 nM; in [8], 24 nM; in experiment [9], 9.78 nM; in experiment [10], 0.663 nM; in [11], 15.7 nM; in experiment [12], 26 nM. The Kd is 13 nM in experiment [13]; 6.1 nM in [14]; 8.97 nM in experiment [15]; 35.5 nM in experiment [16]; 56.3 nM in experiment [17]; 3.79 nM in [18]. Further, the Kd in experiment [19] was determined as 13 nM; in [20], 20 nM; in experiment [21] it was 3.9 nM.

The values are drawn from article PMC5910400 (2018).
